Results reported in US6500670.

Target: T1, human pyruvate dehydrogenase E1alpha/E1beta subunit complex, co-expressed in and purified from E. coli M15, P08559
T1 chain 1: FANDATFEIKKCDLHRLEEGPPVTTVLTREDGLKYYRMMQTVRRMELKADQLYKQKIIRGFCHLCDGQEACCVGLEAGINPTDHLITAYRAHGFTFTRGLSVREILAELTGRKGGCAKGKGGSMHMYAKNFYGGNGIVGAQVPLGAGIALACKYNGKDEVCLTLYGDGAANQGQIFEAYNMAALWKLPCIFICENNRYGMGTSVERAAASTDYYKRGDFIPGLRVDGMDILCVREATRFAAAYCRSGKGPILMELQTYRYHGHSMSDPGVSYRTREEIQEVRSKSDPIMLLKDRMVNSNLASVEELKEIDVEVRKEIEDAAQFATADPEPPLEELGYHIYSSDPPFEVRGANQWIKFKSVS
T1 chain 2: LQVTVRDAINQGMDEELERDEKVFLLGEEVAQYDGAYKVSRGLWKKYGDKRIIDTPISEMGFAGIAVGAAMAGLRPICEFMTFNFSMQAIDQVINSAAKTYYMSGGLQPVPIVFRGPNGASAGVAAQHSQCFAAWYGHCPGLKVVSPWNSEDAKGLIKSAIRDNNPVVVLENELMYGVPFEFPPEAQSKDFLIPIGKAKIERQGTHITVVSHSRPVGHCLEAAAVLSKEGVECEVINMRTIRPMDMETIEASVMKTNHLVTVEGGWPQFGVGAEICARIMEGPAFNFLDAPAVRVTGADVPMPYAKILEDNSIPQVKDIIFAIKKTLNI

B1: Arabidopsis thaliana pyruvate dehydrogenase kinase (PDHK) fusion protein, product of clone YA5 expressed in E. coli from construct pZTa5 (pTrcHisB vector) (protein)
chain: MAVKKACEMFPKSLIEDVHKWGCMKQTGVSLRYMMEFGSKPTERNLLISAQFLHKELPIRVARRAIELQTLPYGLSDKPAVLKVRDWYLESFRDMRAFPEIKDSGDEKDFTQMIKAVKVRHNNVVPMMALGVNQLKKGMNSGNLDEIHQFLDRFYLSRIGIRMLIGQHVELHNPNPPLHTVGYIHTKMSPMEVARNASEDARSICFREYGSAPEINIYGDPSFTFPYVPTHLDLMMYELVKNSLRAVQERFVDSDRVAPPIRIIVADGIEDVTIKVSDEGGGIARSGLPRIFTYLYSTARNPLEEDVDLGIADVPGTMGGYGYGLPISRLYARYFGGDLQIISMEGYGTDAYLHLSRLGDSQEPLP
  in vitro phosphorylation (incorporation of 32P from gamma-32P-ATP into the E1 subunit; SDS-PAGE and autoradiography; 2, 5, 10, 15, 20 min): time-dependent (incubation times of 2, 5, 10, 15, or 20 min) in vitro phosphorylation of the E1α/E1β complex substrate by the action of the plant PDHK (clone YA5) fusion protein
